Biological target: T1, FcγRIIIa extracellular domain with C-terminal His tag (human, UniProt P08637 17-208)
T1 construct: extracellular domain; also called FcgRIIIa; 3a; not shown: His tag at the C terminus
Assay: SPR relative binding; GpH7-A5/GpH7-B3/GpL16-k0 = 100
Text: First, variants of interest were expressed and prepared according to the method described in Reference Example 1, using GpH7-A5 as an H chain; and GpL16-k0 as the L chain; and as the other H chain, GpH7-HA5 (SEQ ID NO: 19), GpH7-HA6 (SEQ ID NO: 20), and GpH7-HA11 (SEQ ID NO: 21) resulting from the introduction of L234Y, G236W, and S298A, respectively, into GpH7-B12 introduced with the alteration P329R. Furthermore, antibodies of interest were expressed and prepared according to the method described in Reference Example 1, using as an H chain, GpH7-A48 (SEQ ID NO: 16) resulting from the introduction of P329R into GpH7-A5; and GpL16-k0 as the L chain; and as the other H chain, GpH7-B3-01-15Y (SEQ ID NO: 22), GpH7-B3-03-20W (SEQ ID NO: 23), and GpH7-B3-15-02A (SEQ ID NO: 24) resulting from the introduction of L234Y, G236W, and S298A, respectively, into GpH7-B3. The antibodies thus obtained were named GpH7-A5/GpH7-HA5/GpL16-k0 (SEQ ID NOs: 3, 19, and 5, respectively), GpH7-A5/GpH7-HA6/GpL16-k0 (SEQ ID NOs: 3, 20, and 5, respectively), GpH7-A5/GpH7-HA11/GpL16-k0 (SEQ ID NOs: 3, 21, and 5, respectively), GpH7-A48/GpH7-B3-01-15Y/GpL16-k0 (SEQ ID NOs: 16, 22, and 5, respectively), GpH7-A48/GpH7-B3-03-20W/GpL16-k0 (SEQ ID NOs: 16, 23, and 5, respectively), and GpH7-A48/GpH7-B3-15-02A/GpL16-k0 (SEQ ID NO: 16, 24, and 5, respectively). The variants were compared to each other for the FcγRIIIa-binding activity according to the method described in Reference Example 2.
Analysis of interaction between objective antibody and the FcγR was carried out using Biacore T100 (GE Healthcare). HBS-EP+ (GE Healthcare) was used as the running buffer, and the measurement temperature was set to 25° C. Chips produced by immobilizing the antigen peptide by the amine coupling method to a Series S Sencor Chip CM5 (GE Healthcare), or alternatively, chips produced by allowing preliminarily biotinylated antigen peptides to interact with and immobilize onto a Series S Sensor Chip SA (certified) (GE Healthcare) were used. Antibodies of interest were captured onto an antigen peptide-immobilized chip, and allowed to interact to each FcγR diluted with running buffer. To regenerate and repeatedly use the chip, the antibodies captured on the chip were washed off by reacting 10 mM glycine-HCl, pH 1.5.

T1 sequence (P08637 17-208): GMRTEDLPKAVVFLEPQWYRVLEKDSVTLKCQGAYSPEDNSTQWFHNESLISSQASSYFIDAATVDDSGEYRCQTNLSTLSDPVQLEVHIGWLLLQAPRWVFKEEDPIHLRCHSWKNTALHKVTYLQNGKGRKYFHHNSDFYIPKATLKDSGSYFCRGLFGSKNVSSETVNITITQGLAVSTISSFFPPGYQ

Row | Binder | FcγRIIIa BINDING ACTIVITY
1 | GpH7-A5/GpH7-HA5/GpL16-k0 (antibody, human IgG1, kappa, H2 L234Y and P329R) heavy 1: not shown heavy 2: QVQLVQSGAEVKKPGASVTVSCKASGYTFTDYEMHWIRQPPGEGLEWIGAIDPKTGDTAYSESFQDRVTLTADKSTSTAYMELSSLTSEDTAVYYCTRFYSYTYWGQGTLVTVSSASTKGPSVFPLAPSSKSTSGGTAALGCLVKDYFPEPVTVSWNSGALTSGVHTFPAVLQSSGLYSLSSVVTVPSSSLGTQTYICNVNHKPSNTKVDKKVEPKSCDKTHTCPPCPAPEYLGGPSVFLFPPKPKDTLMISRTPEVTCVVVDVSHEDPEVKFNWYVDGVEVHNAKTKPREEQYNSTYRVVSVLTVLHQDWLNGKEYKCKVSNKALRAPIEKTISKAKGQPREPQVYTLPPSRDELTKNQVSLTCLVKGFYPSDIAVEWESNGQPENNYKTTPPVLDSDGSFFLYSKLTVDKSRWQQGNVFSCSVMHEALHNHYTQESLSLSP light: DIVMTQSPLSLPVTPGEPASISCQASESLVHSNRNTYLHWYLQKPGQSPQLLIYKVSNRFSGVPDRFSGSGSGTDFTLKISRVEAEDVGVYYCSQNTHVPPTFGQGTKVEIERTVAAPSVFIFPPSDEQLKSGTASVVCLLNNFYPREAKVQWKVDNALQSGNSQESVTEQDSKDSTYSLSSTLTLSKADYEKHKVYACEVTHQGLSSPVTKSFNRGEC | 60 % of control
2 | GpH7-A5/GpH7-HA6/GpL16-k0 (antibody, human IgG1, kappa, H2 G236W and P329R) heavy 1: not shown heavy 2: QVQLVQSGAEVKKPGASVTVSCKASGYTFTDYEMHWIRQPPGEGLEWIGAIDPKTGDTAYSESFQDRVTLTADKSTSTAYMELSSLTSEDTAVYYCTRFYSYTYWGQGTLVTVSSASTKGPSVFPLAPSSKSTSGGTAALGCLVKDYFPEPVTVSWNSGALTSGVHTFPAVLQSSGLYSLSSVVTVPSSSLGTQTYICNVNHKPSNTKVDKKVEPKSCDKTHTCPPCPAPELLWGPSVFLFPPKPKDTLMISRTPEVTCVVVDVSHEDPEVKFNWYVDGVEVHNAKTKPREEQYNSTYRVVSVLTVLHQDWLNGKEYKCKVSNKALRAPIEKTISKAKGQPREPQVYTLPPSRDELTKNQVSLTCLVKGFYPSDIAVEWESNGQPENNYKTTPPVLDSDGSFFLYSKLTVDKSRWQQGNVFSCSVMHEALHNHYTQESLSLSP light: DIVMTQSPLSLPVTPGEPASISCQASESLVHSNRNTYLHWYLQKPGQSPQLLIYKVSNRFSGVPDRFSGSGSGTDFTLKISRVEAEDVGVYYCSQNTHVPPTFGQGTKVEIERTVAAPSVFIFPPSDEQLKSGTASVVCLLNNFYPREAKVQWKVDNALQSGNSQESVTEQDSKDSTYSLSSTLTLSKADYEKHKVYACEVTHQGLSSPVTKSFNRGEC | 56 % of control
3 | GpH7-A48/GpH7-B3-15-02A/GpL16-k0 (antibody, human IgG1, kappa, H1 P329R; H2 S298A) heavy 1: QVQLVQSGAEVKKPGASVTVSCKASGYTFTDYEMHWIRQPPGEGLEWIGAIDPKTGDTAYSESFQDRVTLTADKSTSTAYMELSSLTSEDTAVYYCTRFYSYTYWGQGTLVTVSSASTKGPSVFPLAPSSKSTSGGTAALGCLVKDYFPEPVTVSWNSGALTSGVHTFPAVLQSSGLYSLSSVVTVPSSSLGTQTYICNVNHKPSNTKVDKKVEPKSCDKTHTCPPCPAPELLGGPSVFLFPPKPKDTLMISRTPEVTCVVVDVSHEDPEVKFNWYVDGVEVHNAKTKPREEQYNSTYRVVSVLTVLHQDWLNGKEYKCKVSNKALRAPIEKTISKAKGQPREPQVYTLPPSRKELTKNQVSLTCLVKGFYPSDIAVEWESNGQPENNYKTTPPVLDSDGSFFLYSKLTVDKSRWQQGNVFSCSVMHEALHNRYTQKSLSLSP heavy 2: not shown light: DIVMTQSPLSLPVTPGEPASISCQASESLVHSNRNTYLHWYLQKPGQSPQLLIYKVSNRFSGVPDRFSGSGSGTDFTLKISRVEAEDVGVYYCSQNTHVPPTFGQGTKVEIERTVAAPSVFIFPPSDEQLKSGTASVVCLLNNFYPREAKVQWKVDNALQSGNSQESVTEQDSKDSTYSLSSTLTLSKADYEKHKVYACEVTHQGLSSPVTKSFNRGEC | 47 % of control
4 | GpH7-A5/GpH7-HA11/GpL16-k0 (antibody, human IgG1, kappa, H2 S298A and P329R) heavy 1: not shown heavy 2: QVQLVQSGAEVKKPGASVTVSCKASGYTFTDYEMHWIRQPPGEGLEWIGAIDPKTGDTAYSESFQDRVTLTADKSTSTAYMELSSLTSEDTAVYYCTRFYSYTYWGQGTLVTVSSASTKGPSVFPLAPSSKSTSGGTAALGCLVKDYFPEPVTVSWNSGALTSGVHTFPAVLQSSGLYSLSSVVTVPSSSLGTQTYICNVNHKPSNTKVDKKVEPKSCDKTHTCPPCPAPELLGGPSVFLFPPKPKDTLMISRTPEVTCVVVDVSHEDPEVKFNWYVDGVEVHNAKTKPREEQYNATYRVVSVLTVLHQDWLNGKEYKCKVSNKALRAPIEKTISKAKGQPREPQVYTLPPSRDELTKNQVSLTCLVKGFYPSDIAVEWESNGQPENNYKTTPPVLDSDGSFFLYSKLTVDKSRWQQGNVFSCSVMHEALHNHYTQESLSLSP light: DIVMTQSPLSLPVTPGEPASISCQASESLVHSNRNTYLHWYLQKPGQSPQLLIYKVSNRFSGVPDRFSGSGSGTDFTLKISRVEAEDVGVYYCSQNTHVPPTFGQGTKVEIERTVAAPSVFIFPPSDEQLKSGTASVVCLLNNFYPREAKVQWKVDNALQSGNSQESVTEQDSKDSTYSLSSTLTLSKADYEKHKVYACEVTHQGLSSPVTKSFNRGEC | 84 % of control

Further lines, results first:

Row | FcγRIIIa BINDING ACTIVITY | Binder
5 | 11 % of control | GpH7-A48/GpH7-B3-01-15Y/GpL16-k0 (antibody, human IgG1, kappa, H1 P329R; H2 L234Y) heavy 1: QVQLVQSGAEVKKPGASVTVSCKASGYTFTDYEMHWIRQPPGEGLEWIGAIDPKTGDTAYSESFQDRVTLTADKSTSTAYMELSSLTSEDTAVYYCTRFYSYTYWGQGTLVTVSSASTKGPSVFPLAPSSKSTSGGTAALGCLVKDYFPEPVTVSWNSGALTSGVHTFPAVLQSSGLYSLSSVVTVPSSSLGTQTYICNVNHKPSNTKVDKKVEPKSCDKTHTCPPCPAPELLGGPSVFLFPPKPKDTLMISRTPEVTCVVVDVSHEDPEVKFNWYVDGVEVHNAKTKPREEQYNSTYRVVSVLTVLHQDWLNGKEYKCKVSNKALRAPIEKTISKAKGQPREPQVYTLPPSRKELTKNQVSLTCLVKGFYPSDIAVEWESNGQPENNYKTTPPVLDSDGSFFLYSKLTVDKSRWQQGNVFSCSVMHEALHNRYTQKSLSLSP heavy 2: not shown light: DIVMTQSPLSLPVTPGEPASISCQASESLVHSNRNTYLHWYLQKPGQSPQLLIYKVSNRFSGVPDRFSGSGSGTDFTLKISRVEAEDVGVYYCSQNTHVPPTFGQGTKVEIERTVAAPSVFIFPPSDEQLKSGTASVVCLLNNFYPREAKVQWKVDNALQSGNSQESVTEQDSKDSTYSLSSTLTLSKADYEKHKVYACEVTHQGLSSPVTKSFNRGEC
6 | 13 % of control | GpH7-A48/GpH7-B3-03-20W/GpL16-k0 (antibody, human IgG1, kappa, H1 P329R; H2 G236W) heavy 1: QVQLVQSGAEVKKPGASVTVSCKASGYTFTDYEMHWIRQPPGEGLEWIGAIDPKTGDTAYSESFQDRVTLTADKSTSTAYMELSSLTSEDTAVYYCTRFYSYTYWGQGTLVTVSSASTKGPSVFPLAPSSKSTSGGTAALGCLVKDYFPEPVTVSWNSGALTSGVHTFPAVLQSSGLYSLSSVVTVPSSSLGTQTYICNVNHKPSNTKVDKKVEPKSCDKTHTCPPCPAPELLGGPSVFLFPPKPKDTLMISRTPEVTCVVVDVSHEDPEVKFNWYVDGVEVHNAKTKPREEQYNSTYRVVSVLTVLHQDWLNGKEYKCKVSNKALRAPIEKTISKAKGQPREPQVYTLPPSRKELTKNQVSLTCLVKGFYPSDIAVEWESNGQPENNYKTTPPVLDSDGSFFLYSKLTVDKSRWQQGNVFSCSVMHEALHNRYTQKSLSLSP heavy 2: not shown light: DIVMTQSPLSLPVTPGEPASISCQASESLVHSNRNTYLHWYLQKPGQSPQLLIYKVSNRFSGVPDRFSGSGSGTDFTLKISRVEAEDVGVYYCSQNTHVPPTFGQGTKVEIERTVAAPSVFIFPPSDEQLKSGTASVVCLLNNFYPREAKVQWKVDNALQSGNSQESVTEQDSKDSTYSLSSTLTLSKADYEKHKVYACEVTHQGLSSPVTKSFNRGEC
